The record followed here is patent US20260374883 (published 2026).

Assay [1] concerns the target T1, mouse CX3CR1 (mouse, UniProt Q9Z0D9).
T1 chain: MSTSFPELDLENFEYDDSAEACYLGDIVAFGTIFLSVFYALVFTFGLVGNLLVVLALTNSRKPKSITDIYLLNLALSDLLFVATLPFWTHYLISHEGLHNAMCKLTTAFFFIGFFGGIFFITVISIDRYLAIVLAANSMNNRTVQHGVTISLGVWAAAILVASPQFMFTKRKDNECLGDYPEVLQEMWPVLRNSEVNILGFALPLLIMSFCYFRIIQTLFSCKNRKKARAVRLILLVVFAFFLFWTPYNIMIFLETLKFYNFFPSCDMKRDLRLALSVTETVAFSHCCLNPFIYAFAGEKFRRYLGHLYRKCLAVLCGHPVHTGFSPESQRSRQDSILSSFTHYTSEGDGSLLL
Nature of the assay: FACS. (In flow cytometry, cells or beads pass a laser one at a time.)

The target in assay [2] is T2, rat CX3CR1 (rat, UniProt P35411).
T2 chain: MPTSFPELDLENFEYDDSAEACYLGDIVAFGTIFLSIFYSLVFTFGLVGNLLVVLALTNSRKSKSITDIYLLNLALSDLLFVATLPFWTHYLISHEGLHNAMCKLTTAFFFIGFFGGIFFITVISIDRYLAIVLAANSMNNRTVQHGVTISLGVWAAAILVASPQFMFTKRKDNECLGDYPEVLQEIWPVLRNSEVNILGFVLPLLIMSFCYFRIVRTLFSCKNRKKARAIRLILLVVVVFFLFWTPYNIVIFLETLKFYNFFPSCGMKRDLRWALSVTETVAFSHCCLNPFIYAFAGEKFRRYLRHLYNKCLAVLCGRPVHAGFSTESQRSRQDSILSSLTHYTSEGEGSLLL
Kind of assay: FACS.

B1: m1F8-2 (antibody, V domains shown)
VH: QVQLQQSGAELARPGASVKLSCKASGFTFTNYWMQWIKQRPGQGLEWIGAIYPGSGESRYTRKFKGKATLTADKSSSTAYMQLNSLASEDSAVYYCARWAGYSRNAAYWGQGTLVTVSA
VL: DVLMTQTPLSLPVSLGDQASISCRSRQSIVHSSGNTYLEWYLQKPGQSPKLLIYKVSNRFSGVPDRFSGSGSGTDFTLKISRVEAEDLGVYYCFQGSHIPPTFGGGTKLEIK
As for B1, the binding result in assay [1] and in assay [2] was “no binding” throughout.

B2: m1F8-1 (antibody, V domains shown)
VH: QVQLQQSGAELARPGASVKLSCKASGFTFTNYWMQWIKQRPGQGLEWIGAIYPGSGESRYTRKFKGKATLTADKSSSTAYMQLNSLASEDSAVYYCARWAGYSRNAAYWGQGTLVTVSA
VL: DVLMTQTPLSLPVSLGDQASISCRSSQSIVHSSGNTYLEWYLQKPGQSPKLLIYKVSNRFSGVPDRFSGSGSGTDFTLKISRVEAEDLGVYYCFQGSHIPPTFGGGTKLEIK
Take B2: the binding result in assay [1] and in assay [2] was “no binding” in each case.
